Data on one substance can be found in doi:10.1101/2025.11.04.686334.

This assay concerns the target FluA-20 mAb. Nature of the assay: BLI.

The Kd is the equilibrium constant for the complex coming apart. Low values mean a tighter complex, high ones a looser complex.

HA220-2, sequence (Q9NZ52 16-146): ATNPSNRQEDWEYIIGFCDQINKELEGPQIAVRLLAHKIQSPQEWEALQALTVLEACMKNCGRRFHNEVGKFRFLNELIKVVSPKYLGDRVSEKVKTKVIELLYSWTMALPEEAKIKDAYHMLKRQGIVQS
FluA-20 mAb, sequence (heavy, as listed by the source, chain 1 of 2): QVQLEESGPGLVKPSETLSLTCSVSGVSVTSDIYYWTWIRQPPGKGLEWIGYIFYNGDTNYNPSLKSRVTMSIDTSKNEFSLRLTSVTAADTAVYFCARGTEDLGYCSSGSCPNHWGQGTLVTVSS
FluA-20 mAb, sequence (light, as listed by the source, chain 2 of 2): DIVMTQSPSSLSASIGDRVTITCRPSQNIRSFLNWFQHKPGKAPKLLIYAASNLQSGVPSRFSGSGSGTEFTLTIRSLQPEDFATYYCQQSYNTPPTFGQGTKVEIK

In turn, HA220-2 (from UniProt Q9NZ52 16-146) returned a Kd of 0.978 µM.
